A short description of this series: protein stability index of a GFP-peptide fusion (GPS, HEK-293T) (PSI 1-6); higher = more stable.
The mark [1] stands for this setting: treatment: DMSO, c terminus: a fixed tail appended.
[2] abbreviates: treatment: MLN4924 1 uM, 8 h, c terminus: a fixed tail appended.
Where [3] appears, read: treatment: DMSO, c terminus: native.
Setting [4] is: treatment: MLN4924 1 uM, 8 h, c terminus: native.

73 sequences from the supplement of paper PMC10567573 can be followed below.

± gives the standard deviation.
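Note: 24-mer peptide tiles fused after GFP, lentivirally expressed, FACS-sorted into six equal bins by GFP/DsRed ratio, decoded by Illumina sequencing, PSI is the read-weighted mean bin number.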

PGRRGDPDTAPPSERPLEDLRLRL [RTN2]: the protein stability index amounted to 4.43 ± 0.2 under setting [1] and 4.63 ± 0.21 under setting [2]. Taken in the same sequence, the figures for SEHVLKKAHKYSELIILYEKKGLH [VPS39] were 2.08 ± 0.23 and 2.27 ± 0.34. VIRKNIVKKCLELFSELAEDKENY [HSP90AB1] yielded a protein stability index under setting [1] of 2.33 ± 0.046. Take YLIMLPFRFTYYTILDIFRFALRF [FAF2]: the protein stability index under setting [1] came out at 3.33 ± 0.26 and the protein stability index under setting [2] is 3.25 ± 0.18. YEHYERVENGDFNWIVPGKFLAFS [CDC14A] gave a protein stability index under setting [1] of 2.34 ± 0.16 and a protein stability index under setting [2] of 2.26 ± 0.29. Taken in the same sequence, the figures for TALGDKKSLEGDLEDLKDQIAQLE [LMNB1] were 5.21 ± 0.24 and 5.27 ± 0.24.

For the sequence NIHPQVLLPDQARGEVPWSPELGR [ZNF263], the protein stability index by setting is: under setting [1], 4.12 ± 0.16; under setting [2], 4.34 ± 0.21. Consider FKRWIYLNDQNLCIPASSSFVYGA [GAN], for which the protein stability index runs as follows: under setting [1], 2.41 ± 0.37; under setting [2], 2.47 ± 0.38. In the case of LDAHYHVKISDFGLAKCNGLSHSH [RIPK4], the protein stability index reads like this: under setting [1], 2.25 ± 0.31; under setting [2], 2.48 ± 0.15. Taken in the same sequence, the figures for EEHWVGLKKEPGHPWKWSNGKEFN [CD69] were 3.19 ± 0.27 and 3.33 ± 0.21. The corresponding values for QDLDSRLRAGSSEFDSEHNLTSNE [RASAL3] are 5.52 ± 0.29 and 5.42 ± 0.19. Taken in the same sequence, the figures for HADCDRRSRIEALELLGASFANDR [FEM1B] were 3.98 ± 0.31 and 4.17 ± 0.19. For the sequence FSVSSTSRRIYRCRNCINLQNEAQ [IQUB], the protein stability index reads like this: under setting [1], 2.02 ± 0.19; under setting [2], 2.34 ± 0.34. On to LTRPEPVHEFCAGRECQPRWETSS [ADAMTSL2], for which the protein stability index came to 3.76 ± 0.15 under setting [1] and 3.98 ± 0.42 under setting [2]. On to ISCPTCRRETVLFTDYGLAALAVN [RNF208], for which the protein stability index is 2.15 ± 0.13 under setting [1] and 2.22 ± 0.28 under setting [2].

As to STMSLNIITVTLNMEKYNFLGISI [DVL3], the protein stability index is, setting by setting: under setting [1], 3.3 ± 0.42; under setting [2], 2.89 ± 0.33. Taken in the same sequence, the figures for EIVGNLGEGTFGKVVECLDHARGK [CLK3] were 3.81 ± 0.1 and 3.97 ± 0.29.

Take AEGHKASFCLEDTECEGDIQKNYE [LOXL2]: the protein stability index runs as follows: under setting [1], 5.47 ± 0.4; under setting [2], 5.33 ± 0.33. In the case of YRSLGSVQAPSYGARPVSSAASVY [KRT18], the protein stability index by setting is: under setting [1], 3.33 ± 0.23; under setting [2], 3.17 ± 0.097. Taken in the same sequence, the figures for AREGLAAPPRRLRSRKVSCPLTRS [FCHO1] were 3.93 ± 0.12 and 4.13 ± 0.35. The corresponding values for DKLYHPECFMCSDCGLNLKQRGYF [PDLIM4] are 2.22 ± 0.18 and 2.23 ± 0.33. Regarding QIVLLKSSAIEVIMLRSNESFTMD [VDR], the protein stability index is 2.6 ± 0.7 under setting [1] and 2.44 ± 0.4 under setting [2]. Taken in the same sequence, the figures for LRADQEKERKKREERERKRRKEEE [FAF2] were 5.435 ± 0.02 and 5.35 ± 0.31. Take PLEGSAKGKVQAELSQPLTAGGAI [RBBP5]: the protein stability index was 4.88 ± 0.19 under setting [1] and 4.72 ± 0.35 under setting [2]. ASLNIKTTVPEVEPPQDSHSRKTV [PRPH] yielded a protein stability index under setting [1] of 5.21 ± 0.43 and a protein stability index under setting [2] of 5.18 ± 0.21. Taken in the same sequence, the figures for RAKDFLPADIQAQFAISRELIRNI [SNX8] were 2.38 ± 0.18 and 2.48 ± 0.24.

As for TVETCRALGKLLPRETLCTELVLS [LRRC45], the protein stability index is 2.67 ± 0.25 under setting [1] and 2.55 ± 0.13 under setting [2]. The corresponding values for ECSNIPLSQPQQGEAMLANFKPRG [GAN] are 3.5 ± 0.9 and 3.97 ± 0.34. In the case of KSQRQPRTSPSCAFRSDDTKGHPR [CDC14A], the protein stability index is, setting by setting: under setting [1], 4.49 ± 0.16; under setting [2], 4.62 ± 0.2. Regarding SVSCCHGNTLLAVRSVTDEPVPP [NEK8], the protein stability index is, setting by setting: under setting [3], 3.38 ± 0.17; under setting [4], 3.48 ± 0.077.

In the case of IGAAPFSGRRNWCSYVVTRTISCH [EMID1], the protein stability index was determined as 2.23 ± 0.27 under setting [1] and 2.07 ± 0.23 under setting [2]. On to SLIQLLGRNFILFIIFGTMEEMQN [HACD3], for which the protein stability index by setting is: under setting [1], 2.92 ± 0.67; under setting [2], 3.01 ± 1.3.

For YLRFIVSRMKERAIDLNKKGKDNK [ZMYND11], the protein stability index under setting [1] stood at 2.63 ± 0.7 and the protein stability index under setting [2] amounted to 2.05 ± 0.3. The corresponding values for TPEPDTCHELLGHVPLLAEPSFAQ [TPH1] are 3.96 ± 0.27 and 3.91 ± 0.2. The corresponding values for AYEIMQTLHPDASANFHSLDDIYY [FUT8] are 2.85 ± 0.25 and 2.93 ± 0.37. Taken in the same sequence, the figures for YQGPGTRRLQEVLGVQTGGPGGRR [DYRK1B] were 3.59 ± 0.39 and 3.94 ± 0.36. Take FKAYIKIYQGEDLPHPKSMLQATA [ATL3]: the protein stability index is, setting by setting: under setting [1], 2.78 ± 0.35; under setting [2], 2.5 ± 0.57. The corresponding values for DPNINPTIGASFMTKTVQYQNELH [RAB22A] are 4.29 ± 0.31 and 4.19 ± 0.23. The corresponding values for EEKERIGQFVFARDAKAAMAGRLM [AASDHPPT] are 3.36 ± 0.19 and 3.43 ± 0.32.

On to NLYEEGRTAFLWRGNVVLRAQMIR [TRIM43], for which the protein stability index reads like this: under setting [1], 2.22 ± 0.2; under setting [2], 2.06 ± 0.21.

For the sequence TPGGRGDMKYGIYAVENEHMNRLQ [VTI1B], the protein stability index by setting is: under setting [1], 3.69 ± 0.33; under setting [2], 3.55 ± 0.63. Regarding SSKLVTKKAPQPAKPRLAERMTTR [HDAC6], the protein stability index is 4.32 ± 0.14 under setting [1] and 4.47 ± 0.38 under setting [2]. The corresponding values for EDESQSEEENDYRNLDASPTYKGL [CEP70] are 5.27 ± 0.23 and 5.41 ± 0.15. For the sequence QRGALPAPDPELAAEMYQRGRAVL [RSAD1], the protein stability index came to 4.36 ± 0.18 under setting [1] and 4.38 ± 0.17 under setting [2]. The corresponding values for QKPLCASDGRTFLSRCEFQRAKCK [SMOC2] are 3.14 ± 0.52 and 3.6 ± 0.88. Taken in the same sequence, the figures for VMSGVKCSGTELSLAHCRHDGEDV [LOXL2] were 4.95 ± 0.21 and 4.89 ± 0.24. Regarding ARRRKKILFYCHFPDLLLTKRDSF [ALG2], the protein stability index turned out to be 2.4 ± 0.56 under setting [1] and 2.04 ± 0.55 under setting [2]. The corresponding values for RDPSLRPARTVLVGSLSWLRKQLQ are 2.75 ± 0.51 and 3.19 ± 0.48.

Consider PGSASLAQSRLEDPGADSEKSTVV [DLX1], for which the protein stability index is, setting by setting: under setting [1], 5.49 ± 0.38; under setting [2], 5.36 ± 0.26. In the case of EWDKNKSAFPFSDKLGELSDKIGS [CLINT1], the protein stability index by setting is: under setting [1], 3.57 ± 0.37; under setting [2], 3.6 ± 0.22. The corresponding values for AELKEAVEEPSSKDVMEKREDSKE [CHGA] are 5.67 ± 0.083 and 5.61 ± 0.17. The corresponding values for TICYCPEKGTWTELEGDVAEPLAG [KLHL14] are 4.39 ± 0.18 and 4.59 ± 0.26.

Take HGIELHSDVVEYAKEKLESFIKNS [PCMTD1]: the protein stability index was determined as 3.95 ± 0.35 under setting [1] and 4.04 ± 0.15 under setting [2].

As to ELRRDSSESQLASTESDKPTTGRV [C18orf25], the protein stability index is 5.28 ± 0.38 under setting [1] and 5.39 ± 0.21 under setting [2].

Take SSCSSTSGGGGGGGGGGGGGKSGG [CCDC6]: the protein stability index turned out to be 5.17 ± 0.065 under setting [1] and 5 ± 0.51 under setting [2].

Turning to VLICVIVFIIILFIVLFATGAFS [VAMP8], the protein stability index runs as follows: under setting [3], 4.42 ± 0.23; under setting [4], 4.34 ± 0.15.

For ASLHPSVSPGSPPPPLPNHKYNTT [PLAGL1], the protein stability index came out at 4.58 ± 0.14 under setting [1] and 4.586 ± 0.043 under setting [2].

Turning to MSNKDRHIDSSCSSFIKTEPSSPA [ESRRG], the protein stability index reads like this: under setting [1], 4.33 ± 0.18; under setting [2], 4.33 ± 0.17. The corresponding values for IYNSNIFTDPFFIVETLCIIWFSF [KCNA1] are 3.23 ± 0.2 and 3.17 ± 0.29. Taken in the same sequence, the figures for MLLSVSQSMSEEEREKVTPLMVKG [SEPHS2] were 3.83 ± 0.36 and 3.86 ± 0.43. As to PSEEYGKILEVVGRYSVHNAGISF [MLH1], the protein stability index under setting [1] was determined as 2.32 ± 0.36.

RYDAEVVAIAQKFAALRASLVAPL [MYORG]: the protein stability index is, setting by setting: under setting [1], 2.55 ± 0.17; under setting [2], 2.01 ± 0.17. Consider FLVFILNAGLVWFFPWREAKPGST [MFSD9], for which the protein stability index came out at 3.21 ± 0.74 under setting [1] and 3.11 ± 0.19 under setting [2].

As for TYKRFEGLTQRGSIPTYMKAGKL [STK38L], the protein stability index reads like this: under setting [3], 2.26 ± 0.18; under setting [4], 2.41 ± 0.19. On to QNLNDRLASYLEKVRALEEANADL [KRT13], for which the protein stability index is, setting by setting: under setting [1], 4.13 ± 0.17; under setting [2], 3.98 ± 0.39. For SSAGSAEQTAPGDSTGYMEVSLDS [EHMT1], the protein stability index came out at 5.29 ± 0.35 under setting [1] and 5.33 ± 0.12 under setting [2]. For KMPVLKAEASHYNSDLNNLLFCCQ [RHOBTB3], the protein stability index is, setting by setting: under setting [1], 2.27 ± 0.41; under setting [2], 2.29 ± 0.15. The corresponding values for PHLPRVMLPGVLAGVSAEESWAGP [SCNN1D] are 3.37 ± 0.34 and 3.4 ± 0.24.

As for DINLNSPNKGLLSDSMTDVPVDTG [TPD52L2], the protein stability index reads like this: under setting [1], 4.19 ± 0.2; under setting [2], 4.51 ± 0.22. The corresponding values for RPDGDCASSLNGGNIKGIEGHSPG [ZC2HC1A] are 5.16 ± 0.18 and 5.02 ± 0.31. Taken in the same sequence, the figures for RFIIIFEQIRFVMKAHSFVRENVP [SOAT1] were 2.51 ± 0.39 and 2.65 ± 0.56. Taken in the same sequence, the figures for VVLKLFLSFSGSDVQNKLKESAQC [SNX8] were 2.8 ± 0.76 and 2.92 ± 0.52. As for VSQAVEGPEELSRSSSESKLPSSG [RIPK4], the protein stability index was found to be 5.21 ± 0.62 under setting [1] and 5.06 ± 0.58 under setting [2].
